In patent US8398971B2, “Methods, compounds, and compositions for treatment and prophylaxis in the respiratory tract” (NexBio, Inc., priority 2009, dated 2013):
Read-outs that look alike come from different tables or passages of the source.

Key:
[1] = system: muscarinic receptor mediated airway resistance; assay: airway resistance (Penh) in naive mice, methacholine challenged; type: in vivo, BALB/c mice; details: for dosage level sufficient for reduced airway responsiveness: intranasal once daily for three days
[2] = system: muscarinic receptor mediated airway resistance; type: in vivo, BALB/c mice; details: Example 5, 5, 10 and 20 mg/ml carbachol

B1: DAS181: fusion protein comprising a catalytic domain of a sialidase, and an anchoring domain (SEQ ID NO:21) (protein)
chain: MGDHPQATPAPAPDASTELPASMSQAQHLAANTATDNYRIPAITTAPNGDLLISYDERPKDNGNGGSDAPNPNHIVQRRSTDGGKTWSAPTYIHQGTETGKKVGYSDPSYVVDHQTGTIFNFHVKSYDQGWGGSRGGTDPENRGIIQAEVSTSTDNGWTWTHRTITADITKDKPWTARFAASGQGIQIQHGPHAGRLVQQYTIRTAGGAVQAVSVYSDDHGKTWQAGTPIGTGMDENKVVELSDGSLMLNSRASDGSGFRKVAHSTDGGQTWSEPVSDKNLPDSVDNAQIIRAFPNAAPDDPRAKVLLLSHSPNPRPWSRDRGTISMSCDDGASWTTSKVFHEPFVGYTTIAVQSDGSIGLLSEDAHNGADYGGIWYRNFTMNWLGEQCGQKPAKRKKKGGKNGKNRRNRKKKNP
- difference in airway resistance between dose groups ([1]; Example 3, 0.06, 0.1, 0.6 mg/kg): No difference was observed between the different dose groups
- airway resistance vs PBS ([1]; Example 3, 0.06, 0.1 or 0.6 mg/kg intranasal once daily for three days, 48 mg/ml Mch): significantly reduced airway resistance
- dosage level sufficient for reduced airway responsiveness ([1]; Example 3): ≤ 0.06 mg/kg
- airway resistance vs PBS control ([1]; Example 4, 0.6 mg/kg once daily for three days, 6, 12, 24 and 48 mg/ml Mch): significantly reduced airway resistance
- airway resistance vs baseline ([1]; Example 4, 0.6 mg/kg, 3 and 6 mg/ml methacholine): did not increase airway resistance above baseline
- airway resistance vs baseline ([1]; Example 4, 0.6 mg/kg, 12, 24 and 48 mg/ml methacholine): increased airway resistance above baseline
- airway resistance in response to Mch challenge vs PBS ([1]; Example 7, 0.6 mg/kg, one day of treatment): no difference in airway resistance
- airway resistance vs PBS ([1]; Example 7, 0.6 mg/kg, three days of treatment, 24 and 48 mg/ml Mch): significantly reduced airway resistance
- airway resistance vs PBS ([1]; Example 7, 0.6 mg/kg, two days of treatment, 3, 6 and 48 mg/ml methacholine): not at 3, 6 and 48 mg/ml
- airway resistance vs PBS ([1]; Example 7, 0.6 mg/kg, two days of treatment, 12 and 24 mg/ml methacholine): appears to reduce airway resistance
- difference in airway resistance between dose groups ([1]; Example 8, 0.0008, 0.004, 0.02, 0.1 mg/kg): No difference was observed between the different dose groups
- airway resistance vs PBS ([1]; Example 8, 0.0008, 0.004, 0.02 or 0.1 mg/kg once daily for three days, 24 and 48 mg/ml Mch): significantly reduced airway resistance
- dosage level sufficient for reduced airway responsiveness ([1]; Example 8): ≤ 0.0008 mg/kg
- average percentage change Penh (increase in airway resistance over baseline) ([1]; Example 9, 10 ng/kg once daily three days, 24 mg/ml Mch, PBS 550-560%): 525-530%
- average percentage change Penh (increase in airway resistance over baseline) ([1]; Example 9, 0.1 μg/kg, 24 mg/ml Mch): 450%
- average percentage change Penh (increase in airway resistance over baseline) ([1]; Example 9, 1 μg/kg, 24 mg/ml Mch): 525%
- average percentage change Penh (increase in airway resistance over baseline) ([1]; Example 9, 10 μg/kg, 24 mg/ml Mch): 225%
- average percentage change Penh (increase in airway resistance over baseline) ([1]; Example 9, 0.1 mg/kg, 24 mg/ml Mch): 200%
- airway resistance vs PBS ([1]; Example 9, all doses 10 ng/kg to 0.1 mg/kg, 24 mg/ml Mch): reduced airway resistance
- airway resistance in response to Mch ([1]; Example 9, dose levels of 0.01 or 0.1 mg/kg): significantly reduced airway resistance
- airway resistance vs PBS ([2]; 0.6 mg/kg once daily for three days): significantly reduced airway resistance
- airway resistance vs baseline ([2]; 0.6 mg/kg): increased airway resistance above baseline
